The text below walks through data of publication PMC10786891, “Massively parallel profiling of RNA-targeting CRISPR-Cas13d”.

Positions count from the first letter of the chain named. In names and notes the source's numbering stands.

The chains are these.
B1: target 1 insA 3' of 19,insA 3' of 15 (mixed)
RNA 1: CACCCGUGCAAAAAUGCAGGGGUCUAAAACUGAGCGGAUAACCUCUCUAUGG
RNA 2: GGGAAUGGAUCCACAUCUACGAAUUCGUACCAUAAGAGAAGGUUAUCCGCUCACCGAGAUCGGAAGAGCACACGU
B2: target 1 G12U,A14G (mixed)
RNA 1: B1 RNA 1
RNA 2: GGGAAUGGAUCCACAUCUACGAAUUCGUACCAUAGAGGGUUUAUCCGCUCACCGAGAUCGGAAGAGCACACGU
B3: target 1 U10C,U11A (mixed)
RNA 1: B1 RNA 1
RNA 2: B2 RNA 2 with G38A, U40G, U41A, U42C
B4: target 1 insU 3' of 21,insC 3' of 9 (mixed)
RNA 1: B1 RNA 1
RNA 2: B1 RNA 2 with A32U, U33A, A34U, A40G, G42U, U44A, A45C
B5: target 1 insG 3' of 18,insC 3' of 15 (mixed)
RNA 1: B1 RNA 1
RNA 2: B1 RNA 2 with A35G, A39C
B6: target 1 complement block 7-12 (mixed)
RNA 1: B1 RNA 1
RNA 2: B2 RNA 2 with G38A, U40C, U41A, U42A, A43U, U44A, C45G
B7: target 1 U8C,G17A (mixed)
RNA 1: B1 RNA 1
RNA 2: B2 RNA 2 with G35A, G38A, U40G, U44C
B8: target 1 insU 3' of 20,insU 3' of 1 (mixed)
RNA 1: B1 RNA 1
RNA 2: GGGAAUGGAUCCACAUCUACGAAUUCGUACCAUUAGAGAGGUUAUCCGCUCAUCCGAGAUCGGAAGAGCACACGU
B9: target 1 insC 3' of 9,insG 3' of 3 (mixed)
RNA 1: B1 RNA 1
RNA 2: GGGAAUGGAUCCACAUCUACGAAUUCGUACCAUAGAGAGGUUACUCCGCUGCACCGAGAUCGGAAGAGCACACGU
B10: target 1 insG 3' of 8 (mixed)
RNA 1: B1 RNA 1
RNA 2: GGGAAUGGAUCCACAUCUACGAAUUCGUACCAUAGAGAGGUUAUGCCGCUCACCGAGAUCGGAAGAGCACACGU
B11: target 1 C4G,A9C (mixed)
RNA 1: B1 RNA 1
RNA 2: B2 RNA 2 with G38A, U40G, A43C, C48G
B12: target 1 C6G,C22U (mixed)
RNA 1: B1 RNA 1
RNA 2: B2 RNA 2 with C30U, G38A, U40G, C46G
B13: target 1 insA 3' of 21,insG 3' of 21 (mixed)
RNA 1: B1 RNA 1
RNA 2: B1 RNA 2 with U33G, A35U, G36A, A37G, G38A, A39G
B14: target 1 insC 3' of 22,insG 3' of 7 (mixed)
RNA 1: B1 RNA 1
RNA 2: B1 RNA 2 with A32C, U33A, A34U, A40G, G42U, U44A, A45U, U46C, C47G
B15: target 1 insG 3' of 9,insU 3' of 2 (mixed)
RNA 1: B1 RNA 1
RNA 2: B9 RNA 2 with C44G, G51C, C52U

This series addresses T1, EsCas13d, nuclease-dead (Eubacterium siraeum, UniProt B0MS50, R295A;H300A;R849A;H854A).
T1 sequence: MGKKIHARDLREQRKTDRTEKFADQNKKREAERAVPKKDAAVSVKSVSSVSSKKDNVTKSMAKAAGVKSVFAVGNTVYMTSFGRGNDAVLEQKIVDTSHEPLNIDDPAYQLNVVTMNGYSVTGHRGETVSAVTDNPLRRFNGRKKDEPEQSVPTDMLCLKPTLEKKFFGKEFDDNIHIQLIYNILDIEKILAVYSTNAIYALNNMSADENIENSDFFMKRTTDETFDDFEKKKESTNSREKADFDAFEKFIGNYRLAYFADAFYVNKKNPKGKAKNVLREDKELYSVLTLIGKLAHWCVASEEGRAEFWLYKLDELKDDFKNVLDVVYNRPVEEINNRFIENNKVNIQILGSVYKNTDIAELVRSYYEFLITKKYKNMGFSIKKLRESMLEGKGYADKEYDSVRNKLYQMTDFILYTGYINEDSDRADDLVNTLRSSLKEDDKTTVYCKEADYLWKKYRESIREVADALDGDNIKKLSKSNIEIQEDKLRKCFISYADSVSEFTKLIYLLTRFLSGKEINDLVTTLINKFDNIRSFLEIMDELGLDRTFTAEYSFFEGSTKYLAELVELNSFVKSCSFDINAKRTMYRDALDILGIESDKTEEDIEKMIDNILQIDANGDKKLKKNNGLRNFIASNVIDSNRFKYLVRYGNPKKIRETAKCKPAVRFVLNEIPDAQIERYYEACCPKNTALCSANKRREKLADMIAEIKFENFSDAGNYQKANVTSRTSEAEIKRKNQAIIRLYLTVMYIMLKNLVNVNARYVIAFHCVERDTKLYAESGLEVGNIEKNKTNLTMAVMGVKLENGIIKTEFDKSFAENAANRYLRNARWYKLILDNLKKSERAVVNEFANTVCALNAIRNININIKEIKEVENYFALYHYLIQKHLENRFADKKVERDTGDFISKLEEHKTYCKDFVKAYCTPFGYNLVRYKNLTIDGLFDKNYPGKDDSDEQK
Put plainly: crRNA (strand 1, pre-loaded); Mg2+; 40 mM Tris-HCl pH 7.5, 150 mM NaCl, 6 mM MgCl2, 1 mM DTT, 0.1% Tween-20, 0.2 mg/ml BSA; 25 C; 10 min per concentration, then washed. As to conditions: tags: His6-TwinStrep-SUMO cleaved; N-terminal SNAP kept (SNAP-Surface 488); label: 3' end held by stalled T7 RNA polymerase.
Take B1: the Kd (commonly the concentration at which binding is half-saturated) was 16.4 ± 1.8 nM. As for B2, the figure is 32.7 ± 3 nM; as for B3, 35.7 ± 2.9 nM; as for B4, 40.1 ± 2.9 nM.

Consider B5, for which the Kd came out at 62 ± 11 nM.

The molecule B6 came in with a Kd of 16.6 ± 0.7 nM. As for B7, binding was characterised by a dissociation constant (Kd) of 61 ± 10 nM. B8 gave a Kd of 14.1 ± 1.4 nM. As to B9, the Kd worked out at 7.3 ± 0.5 nM. B10 had a Kd of 12.9 ± 0.5 nM. Turning to B11, the affinity, expressed as Kd, was 7.2 ± 0.7 nM.

In turn, B12 had a dissociation constant (Kd) of 14 ± 1.1 nM. On to B13, for which the Kd was found to be 40 ± 5 nM. On to B14, for which the affinity, expressed as Kd, was 16.2 ± 3 nM.

B15: the dissociation constant (Kd) came to 18.9 ± 1.2 nM.
